Values joined by “and” are separate entries in the source; they are usually repeats but may differ in a detail not shown here. Equal entries are not always repeated.
Biological target: von Willebrand factor (vWF)
Experiment: cell-based or functional assay

Chain of von Willebrand factor (vWF) (P04275 764-2813): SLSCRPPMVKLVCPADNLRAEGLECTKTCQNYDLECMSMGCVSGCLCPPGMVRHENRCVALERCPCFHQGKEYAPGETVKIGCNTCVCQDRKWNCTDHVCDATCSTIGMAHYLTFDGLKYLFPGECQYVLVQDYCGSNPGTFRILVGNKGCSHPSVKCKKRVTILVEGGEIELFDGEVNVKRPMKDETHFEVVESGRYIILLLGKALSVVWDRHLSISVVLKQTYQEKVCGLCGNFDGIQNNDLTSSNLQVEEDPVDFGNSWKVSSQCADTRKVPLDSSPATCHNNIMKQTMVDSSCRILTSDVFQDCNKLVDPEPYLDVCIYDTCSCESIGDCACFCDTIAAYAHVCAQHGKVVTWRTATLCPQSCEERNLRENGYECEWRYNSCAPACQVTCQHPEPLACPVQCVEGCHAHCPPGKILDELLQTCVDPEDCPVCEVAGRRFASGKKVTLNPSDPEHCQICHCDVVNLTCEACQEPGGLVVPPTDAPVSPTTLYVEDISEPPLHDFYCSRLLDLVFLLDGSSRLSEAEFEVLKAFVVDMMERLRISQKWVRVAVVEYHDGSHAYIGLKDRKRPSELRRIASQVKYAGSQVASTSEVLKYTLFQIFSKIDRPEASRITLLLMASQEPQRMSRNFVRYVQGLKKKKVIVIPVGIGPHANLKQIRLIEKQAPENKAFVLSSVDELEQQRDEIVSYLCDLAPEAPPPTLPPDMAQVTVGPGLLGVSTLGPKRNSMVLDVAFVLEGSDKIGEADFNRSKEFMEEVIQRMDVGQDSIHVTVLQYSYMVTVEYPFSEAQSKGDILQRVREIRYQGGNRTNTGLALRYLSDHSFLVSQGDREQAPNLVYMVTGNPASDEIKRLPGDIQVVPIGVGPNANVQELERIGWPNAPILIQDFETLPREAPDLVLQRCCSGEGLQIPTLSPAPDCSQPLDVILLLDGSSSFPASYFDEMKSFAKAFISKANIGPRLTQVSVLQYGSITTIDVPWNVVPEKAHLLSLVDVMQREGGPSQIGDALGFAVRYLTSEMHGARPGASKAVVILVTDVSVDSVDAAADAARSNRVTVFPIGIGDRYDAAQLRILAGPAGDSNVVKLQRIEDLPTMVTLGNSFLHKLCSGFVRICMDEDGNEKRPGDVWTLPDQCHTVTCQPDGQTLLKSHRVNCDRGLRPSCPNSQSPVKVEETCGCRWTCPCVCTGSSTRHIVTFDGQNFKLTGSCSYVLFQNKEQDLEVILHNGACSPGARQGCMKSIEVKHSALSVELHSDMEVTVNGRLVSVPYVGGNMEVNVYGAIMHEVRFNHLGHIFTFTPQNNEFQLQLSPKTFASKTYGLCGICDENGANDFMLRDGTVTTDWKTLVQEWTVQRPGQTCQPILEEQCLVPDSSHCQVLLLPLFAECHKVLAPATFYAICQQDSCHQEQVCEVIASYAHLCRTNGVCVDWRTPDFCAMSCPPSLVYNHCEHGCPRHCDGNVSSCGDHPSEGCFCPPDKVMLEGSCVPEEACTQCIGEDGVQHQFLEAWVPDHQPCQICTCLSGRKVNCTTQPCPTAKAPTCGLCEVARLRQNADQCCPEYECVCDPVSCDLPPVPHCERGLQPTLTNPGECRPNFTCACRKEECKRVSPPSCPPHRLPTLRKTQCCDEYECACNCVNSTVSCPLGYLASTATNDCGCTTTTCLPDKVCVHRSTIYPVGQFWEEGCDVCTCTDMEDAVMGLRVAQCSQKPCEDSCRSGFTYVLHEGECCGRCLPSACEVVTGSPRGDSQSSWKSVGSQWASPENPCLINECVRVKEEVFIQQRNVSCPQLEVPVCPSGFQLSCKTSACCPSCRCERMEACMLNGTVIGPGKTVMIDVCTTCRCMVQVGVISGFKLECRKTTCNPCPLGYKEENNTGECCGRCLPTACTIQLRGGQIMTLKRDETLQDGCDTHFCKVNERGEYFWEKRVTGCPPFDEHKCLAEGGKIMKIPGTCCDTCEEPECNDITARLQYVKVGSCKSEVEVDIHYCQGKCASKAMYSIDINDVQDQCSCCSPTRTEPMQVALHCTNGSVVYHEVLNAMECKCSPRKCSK

- platelets bound to the channel (chamber coated with 10 ug/mL vWF, flow rate 1600 s-1): 62.3% and 75.8%
Substance: CD42b (from UniProt P07359 17-652) (receptor)

From patent publication US20160002599A1
